To fix the notation:
B1: PcPOX (pyranose 2-oxidase from Phanerochaete chrysosporium) (Phanerodontia chrysosporium) (protein)
chain: MFLDTTPFRADEPYDVFIAGSGPIGATFAKLCVDANLRVCMVEIGAADSFTSKPMKGDPNAPRSVQFGPGQVPIPGYHKKNEIEYQKDIDRFVNVIKGALSTCSIPTSNNHIATLDPSVVSNSLDKPFISLGKNPAQNPFVNLGAEAVTRGVGGMSTHWTCATPEFFAPADFNAPHRERPKLSTDAAEDARIWKDLYAQAKEIIGTSTTEFDHSIRHNLVLRKYNDIFQKENVIREFSPLPLACHRLTDPDYVEWHATDRILEELFTDPVKRGRFTLLTNHRCTKLVFKHYRPGEENEVDYALVEDLLPHMQNPGNPASVKKIYARSYVVACGAVATAQVLANSHIPPDDVVIPFPGGEKGSGGGERDATIPTPLMPMLGKYITEQPMTFCQVVLDSSLMEVVRNPPWPGLDWWKEKVARHVEAFPNDPIPIPFRDPEPQVTIKFTEEHPWHVQIHRDAFSYGAVAENMDTRVIVDYRFFGYTEPQEANELVFQQHYRDAYDMPQPTFKFTMSQDDRARARRMMDDMCNIALKIGGYLPGSEPQFMTPGLALHLAGTTRCGLDTQKTVGNTHCKVHNFNNLYVGGNGVIETGFAANPTLTSICYAIRASNDIIAKFGRHRG
B2: PcPOX (pyranose 2-oxidase from Phanerochaete chrysosporium) (Phanerodontia chrysosporium; A551N) (protein)
chain: B1 chain with A551N
B3: PcPOX (pyranose 2-oxidase from Phanerochaete chrysosporium) (Phanerodontia chrysosporium; A551L) (protein)
chain: B1 chain with A551L

Numbering of substitutions follows the chain as printed. In names and notes the source's numbering stands.

Substrate in the first series: OC[C@H]1OC[C@H](O)[C@@H](O)[C@@H]1O
Put plainly: purified protein. The class given is biochemical, Phanerodontia chrysosporium. Conditions: 50 mM sodium phosphate pH 7.0, electron acceptor O2.
As to B1, the Km was determined as 18.9 ± 4.4 mM, the kcat was found to be 82.5 ± 10.3 s⁻¹ and the kcat/Km was found to be 4400 M⁻¹ s⁻¹.
For B2, the Km is 65.7 ± 4.5 mM, the kcat worked out at 0.253 ± 0.006 s⁻¹ and the kcat/Km was found to be 3.8 M⁻¹ s⁻¹.
For B3, in that order: 26.9 ± 3.5 mM, 0.00696 ± 0.00027 s⁻¹ and 0.26 M⁻¹ s⁻¹.

Substrate in another series: OC[C@H]1OC(O)[C@H](O)[C@@H](O)[C@@H]1O
Put plainly: purified protein. It counts as biochemical, Phanerodontia chrysosporium. Particulars: 50 mM sodium phosphate pH 7.0, electron acceptor O2.
As for B1, the Km was 0.978 ± 0.156 mM, the kcat was 115 ± 2 s⁻¹ and the kcat/Km amounted to 120000 M⁻¹ s⁻¹.
The corresponding values for B2 are 12.1 ± 0.3 mM, 0.496 ± 0.021 s⁻¹ and 41 M⁻¹ s⁻¹.
For B3, in that order: 3.44 ± 1.15 mM, 0.00659 ± 0.00129 s⁻¹ and 1.9 M⁻¹ s⁻¹.

As usually defined, the Km is the concentration of substrate that gives half-maximal velocity. By kcat is commonly meant the maximal rate divided by the concentration of active sites. One may read the kcat/Km as the second-order rate constant that governs catalysis at low substrate concentration.

The values are drawn from publication PMC8135088.
